# According to paper PMC10798875 (The Journal of Cell Biology, 2024):
# Columns and labels:
# [1] = molecular target: RanGTP (wild-type Ran loaded with GTP) (UniProt P62826 1-216); test: MST
# [2] = molecular target: karyopherinα (Kapα; importinα1; KPNA2), full-length human (human, UniProt P52292 1-529); test: MST
Binder,Kd [1] [nM],Kd [2] [nM],binding result [2]
"cellular apoptosis susceptibility protein (CAS), human wild type (natural protein) MELSDANLQTLTEYLKKTLDPDPAIRRPAEKFLESVEGNQNYPLLLLTLLEKSQDNVIKVCASVTFKNYIKRNWRIVEDEPNKICEADRVAIKANIVHLMLSSPEQIQKQLSDAISIIGREDFPQKWPDLLTEMVNRFQSGDFHVINGVLRTAHSLFKRYRHEFKSNELWTEIKLVLDAFALPLTNLFKATIELCSTHANDASALRILFSSLILISKLFYSLNFQDLPEFFEDNMETWMNNFHTLLTLDNKLLQTDDEEEAGLLELLKSQICDNAALYAQKYDEEFQRYLPRFVTAIWNLLVTTGQEVKYDLLVSNAIQFLASVCERPHYKNLFEDQNTLTSICEKVIVPNMEFRAADEEAFEDNSEEYIRRDLEGSDIDTRRRAACDLVRGLCKFFEGPVTGIFSGYVNSMLQEYAKNPSVNWKHKDAAIYLVTSLASKAQTQKHGITQANELVNLTEFFVNHILPDLKSANVNEFPVLKADGIKYIMIFRNQVPKEHLLVSIPLLINHLQAESIVVHTYAAHALERLFTMRGPNNATLFTAAEIAPFVEILLTNLFKALTLPGSSENEYIMKAIMRSFSLLQEAIIPYIPTLITQLTQKLLAVSKNPSKPHFNHYMFEAICLSIRITCKANPAAVVNFEEALFLVFTEILQNDVQEFIPYVFQVMSLLLETHKNDIPSSYMALFPHLLQPVLWERTGNIPALVRLLQAFLERGSNTIASAAADKIPGLLGVFQKLIASKANDHQGFYLLNSIIEHMPPESVDQYRKQIFILLFQRLQNSKTTKFIKSFLVFINLYCIKYGALALQEIFDGIQPKMFGMVLEKIIIPEIQKVSGNVEKKICAVGITKLLTECPPMMDTEYTKLWTPLLQSLIGLFELPEDDTIPDEEHFIDIEDTPGYQTAFSQLAFAGKKEHDPVGQMVNNPKIHLAQSLHKLSTACPGRVPSMVSTSLNAEALQYLQGYLQAASVTLL",1400 ± 400,9.3 ± 2.9,
∆40NCAS (CAS lacking the first 40 amino acids of the N-terminus) (domain or fragment) NYPLLLLTLLEKSQDNVIKVCASVTFKNYIKRNWRIVEDEPNKICEADRVAIKANIVHLMLSSPEQIQKQLSDAISIIGREDFPQKWPDLLTEMVNRFQSGDFHVINGVLRTAHSLFKRYRHEFKSNELWTEIKLVLDAFALPLTNLFKATIELCSTHANDASALRILFSSLILISKLFYSLNFQDLPEFFEDNMETWMNNFHTLLTLDNKLLQTDDEEEAGLLELLKSQICDNAALYAQKYDEEFQRYLPRFVTAIWNLLVTTGQEVKYDLLVSNAIQFLASVCERPHYKNLFEDQNTLTSICEKVIVPNMEFRAADEEAFEDNSEEYIRRDLEGSDIDTRRRAACDLVRGLCKFFEGPVTGIFSGYVNSMLQEYAKNPSVNWKHKDAAIYLVTSLASKAQTQKHGITQANELVNLTEFFVNHILPDLKSANVNEFPVLKADGIKYIMIFRNQVPKEHLLVSIPLLINHLQAESIVVHTYAAHALERLFTMRGPNNATLFTAAEIAPFVEILLTNLFKALTLPGSSENEYIMKAIMRSFSLLQEAIIPYIPTLITQLTQKLLAVSKNPSKPHFNHYMFEAICLSIRITCKANPAAVVNFEEALFLVFTEILQNDVQEFIPYVFQVMSLLLETHKNDIPSSYMALFPHLLQPVLWERTGNIPALVRLLQAFLERGSNTIASAAADKIPGLLGVFQKLIASKANDHQGFYLLNSIIEHMPPESVDQYRKQIFILLFQRLQNSKTTKFIKSFLVFINLYCIKYGALALQEIFDGIQPKMFGMVLEKIIIPEIQKVSGNVEKKICAVGITKLLTECPPMMDTEYTKLWTPLLQSLIGLFELPEDDTIPDEEHFIDIEDTPGYQTAFSQLAFAGKKEHDPVGQMVNNPKIHLAQSLHKLSTACPGRVPSMVSTSLNAEALQYLQGYLQAASVTLL,,,binds
